Experimental data as given in the supplement of paper PMC9732359.
± gives the uncertainty stated by the source.

Assay: protein stability index of a GFP-peptide fusion (yeast GPS) (PSI 1-4); higher = more stable; sorted into four equal gates, so the index is relative within each strain
Method in brief: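 Tiled 17-residue peptides from yeast proteins were fused downstream of GFP on a plasmid that also expresses Cherry, and the pooled library was carried in yeast. Mid-log cultures grown in leucine-free medium were sorted into four equal gates by GFP/Cherry fluorescence ratio. Plasmids from each gate were PCR-amplified and Illumina-sequenced, and reads were assigned to strains by barcodes. Each peptide's protein stability index is the sum, over gates, of the gate's read frequency multiplied by its gate number.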

Sequence | protein stability index (doa10∆) | protein stability index (pdr5∆) | protein stability index (san1∆) | protein stability index (ubr1∆)
VAASIIPFPDHNQSPRN [RPB2] | 2.37 ± 0.09 | 2.21 ± 0.076 | 2.33 ± 0.12 | 2.63 ± 0.078
GEIVSINQINEAHPTKV [RPL20A] | 3.17 ± 0.25 | 2.98 ± 0.17 | 3.06 ± 0.06 | 2.77 ± 0.092
LIPCKYLNRHADFFVRE [RPN7] | 2.62 ± 0.092 | 2.49 ± 0.12 | 2.18 ± 0.19 | 2.81 ± 0.11
DDPFMTKSGATTSEKQE [GAL11] | 2.97 ± 0.18 | 3.26 ± 0.13 | 2.82 ± 0.23 | 
PVLDNPFTNEAHMWPRV [POP3] | 3.26 ± 0.12 | 2.94 ± 0.1 | 2.99 ± 0.11 | 3.27 ± 0.06
CGLMTVIAKLNHNQFEC [RPB2] | 2.33 ± 0.09 | 2.35 ± 0.078 | 1.5 ± 0.12 | 1.7 ± 0.15
QAIPKFQMNCYAKEDAF [RPN2] | 1.84 ± 0.061 | 2.23 ± 0.044 | 2.17 ± 0.067 | 2.57 ± 0.036
EKITQISLLCKNFKGIE [PCI8] | 2.41 ± 0.049 | 2.55 ± 0.039 | 2.7 ± 0.037 | 2.5 ± 0.035
TSNWEIYKPLLFEIVSN [SRB8] | 1.59 ± 0.062 | 2.05 ± 0.066 | 2.11 ± 0.14 | 1.23 ± 0.08
LATYGLTIDDLGVASFH [FAS2] | 2.97 ± 0.055 | 3.11 ± 0.053 | 2.92 ± 0.044 | 3.11 ± 0.036
GKGHLVGRLASVVAKQL [RPL16A] | 1.33 ± 0.057 | 1.48 ± 0.051 | 1.33 ± 0.099 | 1.32 ± 0.05
VRRGNRKRPVPKGATYG [RPL15A] |  | 3.27 ± 0.19 | 3.6 ± 0.18 | 3.44 ± 0.14
HLLPAFLKVKGLVKQHL [RET1] | 3.2 ± 0.22 | 3.8 ± 0.2 |  | 
EEQKIVKKVVKEQTEAA [RPL34A] |  | 3.23 ± 0.16 | 3.27 ± 0.061 | 3.13 ± 0.15
KKCPFTGLVSIRGKILT [RPS11A] | 1.7 ± 0.058 | 1.53 ± 0.06 | 1.47 ± 0.12 | 1.88 ± 0.055
FNNEKETEKFALERNWP [RPN12] | 2.68 ± 0.07 | 2.63 ± 0.055 | 2.76 ± 0.041 | 2.84 ± 0.037
SDDKTRQLSPHTLMSFA [PRE1] | 1.83 ± 0.046 | 2.12 ± 0.05 | 2.26 ± 0.082 | 2.18 ± 0.038
PLSLTHRDKNKMDMICR [DIS3] | 3.24 ± 0.13 | 3.43 ± 0.16 | 3.23 ± 0.13 | 3.16 ± 0.18
TQVALNESEKDQWLEEY [UBP6] | 3 ± 0.1 | 2.55 ± 0.07 | 2.66 ± 0.077 | 2.88 ± 0.055
EFTPADPNLSFESSSSL [SSN2] | 3.05 ± 0.17 | 3.09 ± 0.12 | 2.39 ± 0.16 | 2.79 ± 0.15
SAIDEEIEELIDSINGP [SMC3] | 3.29 ± 0.14 | 3.24 ± 0.17 | 3.08 ± 0.17 | 2.42 ± 0.24
NNWFSLPGDMLAVCDEL [SIN4] | 2.33 ± 0.073 | 2.21 ± 0.079 | 1.73 ± 0.13 | 1.85 ± 0.067
KLIIHRKNDNANDHDES [SMC3] |  | 1.73 ± 0.21 |  | 1.36 ± 0.11
TDRLSTTQRRYEKAQKD [SMC1] | 3.33 ± 0.14 | 3.23 ± 0.095 | 2.63 ± 0.14 | 
VAIDQDKITLHDEKTLA [SIR4] | 2.01 ± 0.097 | 2.22 ± 0.096 | 2.26 ± 0.17 | 2.71 ± 0.08
KSWLNRLNNWLFGWNDL [YMR153W/NUP53] | 2.63 ± 0.057 | 2.33 ± 0.045 | 2.03 ± 0.065 | 2.68 ± 0.04
DMIKCFLPKLNSVRNSL [NUT1] | 2.52 ± 0.053 | 2.48 ± 0.089 | 2.47 ± 0.075 | 2.18 ± 0.035
